Experimental data as given in patent US20240209099A1 (SUZHOU TRANSCENTA THERAPEUTICS, published 2024).

Columns and labels:
[1] = target: T1, Recombinant Rhesus macaque VEGFR2/KDR Protein, His tag (rhesus macaque); test: ELISA, rhesus VEGFR2-his coated, anti-human Fc-HRP; antibody made in CHO cells
T1 construct: Expressed in HEK293, bought from ACRO Biosystems; also called rhesus VEGFR2-his; rhesus VEGFR2
T1 chain: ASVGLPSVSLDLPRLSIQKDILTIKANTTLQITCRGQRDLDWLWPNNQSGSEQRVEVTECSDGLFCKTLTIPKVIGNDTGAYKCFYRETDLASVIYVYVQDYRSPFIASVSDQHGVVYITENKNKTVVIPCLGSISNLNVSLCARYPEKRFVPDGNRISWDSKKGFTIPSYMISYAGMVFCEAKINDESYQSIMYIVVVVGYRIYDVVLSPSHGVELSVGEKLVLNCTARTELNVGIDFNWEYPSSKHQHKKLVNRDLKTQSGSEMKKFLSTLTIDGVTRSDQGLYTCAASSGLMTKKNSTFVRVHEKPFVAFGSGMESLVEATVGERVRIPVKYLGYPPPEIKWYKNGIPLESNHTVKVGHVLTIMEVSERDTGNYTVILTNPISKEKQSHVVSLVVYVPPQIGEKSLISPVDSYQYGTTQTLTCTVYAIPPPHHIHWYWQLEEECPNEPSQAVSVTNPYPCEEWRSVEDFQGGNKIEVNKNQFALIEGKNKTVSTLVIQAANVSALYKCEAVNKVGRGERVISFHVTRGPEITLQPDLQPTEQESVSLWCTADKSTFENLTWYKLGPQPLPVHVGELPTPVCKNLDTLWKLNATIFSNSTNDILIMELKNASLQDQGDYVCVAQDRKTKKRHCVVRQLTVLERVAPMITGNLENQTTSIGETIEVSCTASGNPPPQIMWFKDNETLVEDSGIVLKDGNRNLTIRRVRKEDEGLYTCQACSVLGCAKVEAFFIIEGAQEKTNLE

human VEGFR1 protein = target: T2, human VEGFR1 protein (human, UniProt P17948 27-756); test: ELISA, 1 µg/ml antigen coated, 1 µg/ml antibody
T2 construct: also called Sino Biological 10136-H08H
T2 sequence (P17948 27-756 limits assumed): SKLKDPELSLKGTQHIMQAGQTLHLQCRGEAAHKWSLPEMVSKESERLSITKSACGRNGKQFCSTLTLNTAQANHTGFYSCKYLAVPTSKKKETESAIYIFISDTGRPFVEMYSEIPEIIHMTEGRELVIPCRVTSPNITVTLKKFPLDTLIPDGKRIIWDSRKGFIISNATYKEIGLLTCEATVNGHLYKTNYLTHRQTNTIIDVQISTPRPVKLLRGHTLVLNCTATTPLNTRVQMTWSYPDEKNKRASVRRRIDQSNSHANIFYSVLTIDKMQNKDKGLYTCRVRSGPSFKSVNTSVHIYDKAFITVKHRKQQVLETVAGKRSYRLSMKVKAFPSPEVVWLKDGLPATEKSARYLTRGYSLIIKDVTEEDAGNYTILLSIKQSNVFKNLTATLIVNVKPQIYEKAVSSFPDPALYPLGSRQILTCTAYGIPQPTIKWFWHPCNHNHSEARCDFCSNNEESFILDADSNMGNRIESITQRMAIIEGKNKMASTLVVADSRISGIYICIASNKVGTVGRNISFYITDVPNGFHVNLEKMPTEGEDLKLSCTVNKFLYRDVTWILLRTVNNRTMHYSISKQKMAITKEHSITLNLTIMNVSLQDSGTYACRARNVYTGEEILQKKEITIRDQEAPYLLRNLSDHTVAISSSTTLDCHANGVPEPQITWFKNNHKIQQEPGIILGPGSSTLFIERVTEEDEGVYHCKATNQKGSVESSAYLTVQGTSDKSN
Description: (§1) Briefly, 1 μg/ml human VEGFR1 (Sino Biological, cat #10136-H08H), VEGFR2 (Acrobiosystem, cat #KDR-H5227) and VEGFR3 (Sino Biological, cat #10806-H08H) protein were coated overnight at 4° C. 1 μg/ml humanized antibodies (48-H3L1 and 54-H2L1, produced in CHO cells or Ramucirumab from Eli Lilly Germany, lot #20150819) were added for binding to coated antigen. Secondary antibody HRP conjugated goat anti-human Fc antibody were added for detection of binding signal.

human VEGFR3 protein = target: T3, human VEGFR3 protein (human, UniProt P35916 25-776); test: ELISA, 1 µg/ml antigen coated, 1 µg/ml antibody
T3 construct: also called Sino Biological 10806-H08H
T3 sequence (looked up): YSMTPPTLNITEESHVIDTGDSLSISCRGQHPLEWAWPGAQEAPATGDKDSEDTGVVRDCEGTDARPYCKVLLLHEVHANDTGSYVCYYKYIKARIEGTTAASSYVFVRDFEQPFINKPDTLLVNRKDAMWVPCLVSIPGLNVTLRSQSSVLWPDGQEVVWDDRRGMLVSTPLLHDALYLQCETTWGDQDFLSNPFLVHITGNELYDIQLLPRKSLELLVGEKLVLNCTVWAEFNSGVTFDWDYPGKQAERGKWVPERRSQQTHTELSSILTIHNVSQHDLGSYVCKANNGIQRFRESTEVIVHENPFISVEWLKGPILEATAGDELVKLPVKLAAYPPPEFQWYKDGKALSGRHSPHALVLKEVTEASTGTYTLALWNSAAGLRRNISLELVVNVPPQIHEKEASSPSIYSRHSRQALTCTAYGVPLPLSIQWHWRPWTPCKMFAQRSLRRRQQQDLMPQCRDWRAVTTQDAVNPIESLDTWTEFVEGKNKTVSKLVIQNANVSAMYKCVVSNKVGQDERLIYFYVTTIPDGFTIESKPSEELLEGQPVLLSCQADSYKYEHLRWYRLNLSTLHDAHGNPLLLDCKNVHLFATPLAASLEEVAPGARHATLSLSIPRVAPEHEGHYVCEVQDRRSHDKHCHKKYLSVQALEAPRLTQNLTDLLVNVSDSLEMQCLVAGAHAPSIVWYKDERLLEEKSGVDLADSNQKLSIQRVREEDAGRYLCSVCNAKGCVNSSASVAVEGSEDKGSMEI
Description: as §1

[2] = target: T4, Recombinant Human VEGFR2/KDR Protein, His tag (hVEGFR2-his) (human, UniProt P35968 20-764); test: SPR (Biacore), antibody captured by anti-Fc, antigen 2.5-80 nM
T4 construct: Expressed in HEK293, bought from ACRO Biosystems; also called human VEGFR2-his; Human VEGFR2/KDR-His
Procedure, shortened: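 Human or mouse Fc-captured antibody (200–300 RU) on anti-Fc CM5 surface; antigen injected at 2.5–80 nM in HBS-EP pH 7.4 with 180 s association. Reference-cell-subtracted sensorgrams; regeneration with glycine pH 1.5.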

[3] = target: T5, human VEGFR2 on HUVEC cells (human, UniProt P35968 20-1356); test: flow cytometry on HUVEC cells, MFI, anti-human IgG (H+L)-PE
T5 construct: also called hVEGFR2 on HUVEC
Description: Same methods with Example 11. Briefly, Log phase HUVEC cells were collected and added to each tube. Then 100 μl/tube serial diluted humanized antibodies in FACS buffer were added and kept at 4° C. for 1 hr. Binding of antibodies to HUVEC was detected by PE signal of the 2nd antibody (anti-hIgG (H+L)-PE), which was added after the 1st antibodies. (see FIG. 15).

EC50 [1]: 0.0111 µg/mL
binding result (human VEGFR1 protein): no binding (tested: 1 µg/ml)
binding result (human VEGFR3 protein): no binding (tested: 1 µg/ml)
Kd [2]: 2.51 nM
koff [2]: 0.000138 s⁻¹
kon [2]: 54800 M⁻¹ s⁻¹
EC50 (read off the curve) [3]: ~0.3 µg/mL
B1: 54-H2L1 (humanized Mab54) (antibody, human IgG1, V domains shown)
VH: EVQLVESGGGLVKPGGSLRLSCAASGFTFSMYGMSWVRQAPGKRLEWVASISIGGSYTYYADSVKGRFTISRDNAKNTLYLQMNSLRAEDTAVYYCARELDGNYDYWGQGTTLTVSS
VL: DIVITQDELSLPVTFGESVSISCRSSKSLLYKDGKTYLNWFLQRPGQSPQLLIYLMSTRASGVSDRFSGSGSGTDFTLKISRVEAEDVGIYYCQQLVEYPFTFGSGTKLEIK
notes: also called 54-H2L1 (CHO); humanized 54 variant H2L1
